Where a chain is given by its changes, count along the chain named. Numbers in names are those of the source.
T1: GST-CDC6 wild type, full length (human, UniProt Q99741 1-560)
T1 sequence (looked up): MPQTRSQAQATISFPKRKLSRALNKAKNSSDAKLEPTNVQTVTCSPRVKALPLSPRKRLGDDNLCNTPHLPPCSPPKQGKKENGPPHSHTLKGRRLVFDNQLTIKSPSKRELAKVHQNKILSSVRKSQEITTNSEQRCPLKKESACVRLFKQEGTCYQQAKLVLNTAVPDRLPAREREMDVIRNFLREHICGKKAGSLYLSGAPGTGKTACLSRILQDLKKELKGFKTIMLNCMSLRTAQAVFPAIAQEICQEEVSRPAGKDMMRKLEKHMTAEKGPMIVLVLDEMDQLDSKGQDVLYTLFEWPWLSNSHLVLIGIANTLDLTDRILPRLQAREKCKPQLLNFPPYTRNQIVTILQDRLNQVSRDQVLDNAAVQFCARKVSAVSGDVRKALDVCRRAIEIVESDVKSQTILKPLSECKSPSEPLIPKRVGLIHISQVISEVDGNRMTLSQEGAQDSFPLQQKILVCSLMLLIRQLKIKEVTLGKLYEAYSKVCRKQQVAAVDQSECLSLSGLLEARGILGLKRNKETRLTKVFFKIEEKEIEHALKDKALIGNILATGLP

T2: MBP-GFP-ORC1 wild type, full length (human, UniProt Q13415 1-861)
T2 sequence (looked up): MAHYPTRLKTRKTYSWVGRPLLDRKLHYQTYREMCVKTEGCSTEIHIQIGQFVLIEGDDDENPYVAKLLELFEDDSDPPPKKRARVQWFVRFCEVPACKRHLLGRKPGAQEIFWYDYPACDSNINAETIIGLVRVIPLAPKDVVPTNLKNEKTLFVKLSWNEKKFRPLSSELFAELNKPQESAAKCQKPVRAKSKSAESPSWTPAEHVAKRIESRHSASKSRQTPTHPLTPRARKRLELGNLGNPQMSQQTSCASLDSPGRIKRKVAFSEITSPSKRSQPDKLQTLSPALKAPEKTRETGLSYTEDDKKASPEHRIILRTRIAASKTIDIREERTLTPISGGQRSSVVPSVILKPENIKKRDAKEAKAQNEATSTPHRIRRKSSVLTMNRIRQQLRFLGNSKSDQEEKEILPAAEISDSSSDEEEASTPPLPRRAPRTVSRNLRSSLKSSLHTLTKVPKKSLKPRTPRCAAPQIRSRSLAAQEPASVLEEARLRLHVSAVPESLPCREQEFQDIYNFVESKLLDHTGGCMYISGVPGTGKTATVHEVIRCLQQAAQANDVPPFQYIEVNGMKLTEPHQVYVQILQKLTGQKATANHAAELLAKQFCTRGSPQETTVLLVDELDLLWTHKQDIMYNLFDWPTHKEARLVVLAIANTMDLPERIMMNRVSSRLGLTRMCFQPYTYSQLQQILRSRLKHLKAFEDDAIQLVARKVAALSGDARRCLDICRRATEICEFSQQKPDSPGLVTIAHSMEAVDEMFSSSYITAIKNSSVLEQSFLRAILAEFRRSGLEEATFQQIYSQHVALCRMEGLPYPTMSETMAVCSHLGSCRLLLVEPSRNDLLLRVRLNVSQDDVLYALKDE

B1: MBP-ORC1 180–240 (domain or fragment, human, UniProt Q13415 180-240, looked up)
chain: QESAAKCQKPVRAKSKSAESPSWTPAEHVAKRIESRHSASKSRQTPTHPLTPRARKRLELG
B2: MBP-ORC1 100–250 wild type (domain or fragment, human, UniProt Q13415 100-250, looked up)
chain: RHLLGRKPGAQEIFWYDYPACDSNINAETIIGLVRVIPLAPKDVVPTNLKNEKTLFVKLSWNEKKFRPLSSELFAELNKPQESAAKCQKPVRAKSKSAESPSWTPAEHVAKRIESRHSASKSRQTPTHPLTPRARKRLELGNLGNPQMSQQ
B3: MBP-ORC1 100–250 L237A (domain or fragment, human, UniProt Q13415 100-250, looked up)
chain: B2 chain with L138A
B4: MBP-ORC1 wild type, full length (natural protein, human, UniProt Q13415 1-861, looked up)
chain: T2 sequence (looked up)
B5: MBP-ORC1 R105Q (natural protein, human, UniProt Q13415 1-861, looked up)
chain: T2 sequence (looked up) with R105Q
B6: MBP-ORC1 R720Q (natural protein, human, UniProt Q13415 1-861, looked up)
chain: T2 sequence (looked up) with R720Q
B7: GST-CDC6 triple mutant (K92A, R94A and R95A) (natural protein, human, UniProt Q99741 1-560, looked up)
chain: T1 sequence (looked up) with K92A, R94A, R95A
B8: GST-CDC6 Δ21–30 (natural protein, human, UniProt Q99741 1-560, looked up)
chain: MPQTRSQAQATISFPKRKLSDAKLEPTNVQTVTCSPRVKALPLSPRKRLGDDNLCNTPHLPPCSPPKQGKKENGPPHSHTLKGRRLVFDNQLTIKSPSKRELAKVHQNKILSSVRKSQEITTNSEQRCPLKKESACVRLFKQEGTCYQQAKLVLNTAVPDRLPAREREMDVIRNFLREHICGKKAGSLYLSGAPGTGKTACLSRILQDLKKELKGFKTIMLNCMSLRTAQAVFPAIAQEICQEEVSRPAGKDMMRKLEKHMTAEKGPMIVLVLDEMDQLDSKGQDVLYTLFEWPWLSNSHLVLIGIANTLDLTDRILPRLQAREKCKPQLLNFPPYTRNQIVTILQDRLNQVSRDQVLDNAAVQFCARKVSAVSGDVRKALDVCRRAIEIVESDVKSQTILKPLSECKSPSEPLIPKRVGLIHISQVISEVDGNRMTLSQEGAQDSFPLQQKILVCSLMLLIRQLKIKEVTLGKLYEAYSKVCRKQQVAAVDQSECLSLSGLLEARGILGLKRNKETRLTKVFFKIEEKEIEHALKDKALIGNILATGLP
B9: GST-CDC6 Δ11–20 (natural protein, human, UniProt Q99741 1-560, looked up)
chain: B8 chain with T11R, I12A, S13L, F14N, P15K, K16A, R17K, K18N, L19S
B10: MBP-ORC1^235ARA^237 (MBP-ORC1 A-A), full length (natural protein, human, UniProt Q13415 1-861, looked up)
chain: T2 sequence (looked up) with K235A, L237A
B11: GST-CDC6 Δ51–70 (natural protein, human, UniProt Q99741 1-560, looked up)
chain: MPQTRSQAQATISFPKRKLSRALNKAKNSSDAKLEPTNVQTVTCSPRVKAPPCSPPKQGKKENGPPHSHTLKGRRLVFDNQLTIKSPSKRELAKVHQNKILSSVRKSQEITTNSEQRCPLKKESACVRLFKQEGTCYQQAKLVLNTAVPDRLPAREREMDVIRNFLREHICGKKAGSLYLSGAPGTGKTACLSRILQDLKKELKGFKTIMLNCMSLRTAQAVFPAIAQEICQEEVSRPAGKDMMRKLEKHMTAEKGPMIVLVLDEMDQLDSKGQDVLYTLFEWPWLSNSHLVLIGIANTLDLTDRILPRLQAREKCKPQLLNFPPYTRNQIVTILQDRLNQVSRDQVLDNAAVQFCARKVSAVSGDVRKALDVCRRAIEIVESDVKSQTILKPLSECKSPSEPLIPKRVGLIHISQVISEVDGNRMTLSQEGAQDSFPLQQKILVCSLMLLIRQLKIKEVTLGKLYEAYSKVCRKQQVAAVDQSECLSLSGLLEARGILGLKRNKETRLTKVFFKIEEKEIEHALKDKALIGNILATGLP
B12: MBP-ORC1 R105Q, R720Q (natural protein, human, UniProt Q13415 1-861, looked up)
chain: T2 sequence (looked up) with R105Q, R720Q
B13: GST-CDC6 1–110 (domain or fragment, human, UniProt Q99741 1-110, looked up)
chain: MPQTRSQAQATISFPKRKLSRALNKAKNSSDAKLEPTNVQTVTCSPRVKALPLSPRKRLGDDNLCNTPHLPPCSPPKQGKKENGPPHSHTLKGRRLVFDNQLTIKSPSKR
B14: GST-CDC6 Δ71–90 (natural protein, human, UniProt Q99741 1-560, looked up)
chain: MPQTRSQAQATISFPKRKLSRALNKAKNSSDAKLEPTNVQTVTCSPRVKALPLSPRKRLGDDNLCNTPHLLKGRRLVFDNQLTIKSPSKRELAKVHQNKILSSVRKSQEITTNSEQRCPLKKESACVRLFKQEGTCYQQAKLVLNTAVPDRLPAREREMDVIRNFLREHICGKKAGSLYLSGAPGTGKTACLSRILQDLKKELKGFKTIMLNCMSLRTAQAVFPAIAQEICQEEVSRPAGKDMMRKLEKHMTAEKGPMIVLVLDEMDQLDSKGQDVLYTLFEWPWLSNSHLVLIGIANTLDLTDRILPRLQAREKCKPQLLNFPPYTRNQIVTILQDRLNQVSRDQVLDNAAVQFCARKVSAVSGDVRKALDVCRRAIEIVESDVKSQTILKPLSECKSPSEPLIPKRVGLIHISQVISEVDGNRMTLSQEGAQDSFPLQQKILVCSLMLLIRQLKIKEVTLGKLYEAYSKVCRKQQVAAVDQSECLSLSGLLEARGILGLKRNKETRLTKVFFKIEEKEIEHALKDKALIGNILATGLP

Key:
Assay in all cases: pull-down
[1] = target: T1, GST-CDC6 wild type, full length
[2] = target: T2, MBP-GFP-ORC1 wild type, full length
[3] = target: B4

binding result [2] | binding result [3] | Binder | further results
 |  | B1 | binding result [1]: binds
 |  | B2 | binding result [1]: binds
 |  | B3 | binding result [1]: binds
binds |  | B4 | 
binds |  | B5 | 
binds |  | B6 | 
 | binds | B7 | 
 | binds | B8 | 
 | binds | B9 | 
binds |  | B10 | 
 | binds | B11 | 
binds |  | B12 | 
 | binds | B13 | 
 | binds | B14 | 

Reference: PMC8106667 (Molecular cell, 2021)
